As a reminder, the Kd is the free concentration of one partner at which half of the binding sites on the other are occupied at equilibrium, for simple one-to-one binding. High values mean a looser complex, low ones a tighter complex. In general, koff refers to the first-order rate constant of dissociation. As a reminder, the kon is the second-order rate constant of association.

The target of experiment [1] is T1, Cynomolgus CD73 ECD (cynomolgus, UniProt A0A2K5V5U7 27-549).
T1 construct: extracellular domain; also called cyno CD73
T1 sequence: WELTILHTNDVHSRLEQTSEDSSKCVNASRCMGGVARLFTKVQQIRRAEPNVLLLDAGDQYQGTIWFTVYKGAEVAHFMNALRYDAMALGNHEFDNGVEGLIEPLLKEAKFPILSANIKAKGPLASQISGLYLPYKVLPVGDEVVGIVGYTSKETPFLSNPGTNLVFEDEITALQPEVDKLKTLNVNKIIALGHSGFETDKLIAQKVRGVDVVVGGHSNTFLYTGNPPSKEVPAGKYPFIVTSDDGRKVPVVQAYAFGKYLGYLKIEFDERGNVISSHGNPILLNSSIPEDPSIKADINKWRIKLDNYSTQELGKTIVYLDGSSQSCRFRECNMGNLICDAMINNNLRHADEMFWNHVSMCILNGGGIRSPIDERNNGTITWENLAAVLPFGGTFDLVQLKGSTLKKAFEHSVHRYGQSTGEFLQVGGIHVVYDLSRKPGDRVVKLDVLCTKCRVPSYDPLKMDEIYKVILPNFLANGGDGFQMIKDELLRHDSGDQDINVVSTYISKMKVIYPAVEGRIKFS
Description: SPR (Proteon).

In experiment [2] the target is T2, Human CD73 on cells (MDA-MB-231, Jurkat CD73 knock-in, NCI-H322) (human, UniProt P21589 27-549).
T2 sequence: T1 sequence with T199M, A350T, I466V
Description: cell-based or functional assay.

The target in experiment [3] is T3, Murine CD73 on cells (4T1, Jurkat mCD73 knock-in) (murine, UniProt Q61503 29-551).
T3 sequence (looked up): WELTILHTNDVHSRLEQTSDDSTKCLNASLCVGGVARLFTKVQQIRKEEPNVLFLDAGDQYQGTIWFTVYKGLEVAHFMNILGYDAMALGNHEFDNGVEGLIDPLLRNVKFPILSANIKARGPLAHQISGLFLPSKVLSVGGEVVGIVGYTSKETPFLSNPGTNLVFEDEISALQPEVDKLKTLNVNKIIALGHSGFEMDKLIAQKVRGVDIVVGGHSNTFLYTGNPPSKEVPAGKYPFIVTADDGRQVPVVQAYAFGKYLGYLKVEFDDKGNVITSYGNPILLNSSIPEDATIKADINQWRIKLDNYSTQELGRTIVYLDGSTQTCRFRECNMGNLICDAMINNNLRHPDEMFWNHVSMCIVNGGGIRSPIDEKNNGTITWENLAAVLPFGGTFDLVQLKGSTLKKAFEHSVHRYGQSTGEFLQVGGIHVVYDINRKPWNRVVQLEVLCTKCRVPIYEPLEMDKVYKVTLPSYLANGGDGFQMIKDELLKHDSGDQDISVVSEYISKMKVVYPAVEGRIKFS
Description: cell-based or functional assay.

Experiment [4] deals with T4, Cynomolgus CD73 on MK-1 cells (cynomolgus, UniProt A0A2K5V5U7 27-549).
T4 construct: whole, on cells; also called MK-1 (cyno)
T4 sequence: T1 sequence
Description: flow cytometry on cells. For orientation: In flow cytometry, cells or beads pass a laser one at a time.

Experiment [5] addresses T5, Recombinant soluble wild-type human CD73 with C-terminal 6x-histidine tag (human, UniProt P21589 27-549).
T5 construct: dimer in solution; also called sCD73; WT huCD73
T5 sequence: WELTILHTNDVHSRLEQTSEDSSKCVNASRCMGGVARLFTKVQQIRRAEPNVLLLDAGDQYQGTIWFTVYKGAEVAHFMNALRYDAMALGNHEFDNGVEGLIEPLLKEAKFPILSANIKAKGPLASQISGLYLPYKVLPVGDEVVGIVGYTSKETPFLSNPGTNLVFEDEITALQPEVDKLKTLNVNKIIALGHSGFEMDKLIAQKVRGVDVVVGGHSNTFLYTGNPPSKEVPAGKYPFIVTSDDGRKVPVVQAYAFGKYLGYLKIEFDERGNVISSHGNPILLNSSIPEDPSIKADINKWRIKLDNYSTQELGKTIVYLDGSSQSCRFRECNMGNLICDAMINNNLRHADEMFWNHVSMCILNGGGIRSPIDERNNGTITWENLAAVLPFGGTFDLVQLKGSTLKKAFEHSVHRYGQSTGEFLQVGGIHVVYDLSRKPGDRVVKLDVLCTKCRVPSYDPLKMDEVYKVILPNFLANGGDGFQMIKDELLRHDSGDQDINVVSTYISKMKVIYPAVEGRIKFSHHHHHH
As to the kind of experiment: SPR (ProteOn), CD73 immobilized on HTG chip.

The next experiment addresses T6, Human CD73 ECD (human, UniProt P21589 27-549).
T6 construct: Biotinylated in some assays; also called human CD73 extracellular domain; huCD73
T6 sequence: T1 sequence with T199M, A350T, I466V
Description: SPR (ProteOn), antibody captured by anti-human Fc, CD73 ECD in mobile phase. From the text: (§1) A ProteOn XPR36 instrument was used to characterize binding of MEDI9447 to human, murine, and cynomolgus CD73 ECD. MEDI9447 was affinity-captured using an anti-human Fc antibody. CD73 ECD was in the mobile phase. The association and dissociation of CD73 to MEDI9447 could be accurately described with the Langmuir 1: 1 model.

A further experiment concerns the target T7, Murine CD73 ECD (murine, UniProt Q61503 29-551, limits assumed).
T7 construct: extracellular domain; In-house recombinant ECD; also called murine CD73 extracellular domain; muCD73
T7 sequence (looked up): T3 sequence (looked up)
The experiment is described as above.
From the text: as §1

For experiment [6], the target named is T1, Cynomolgus CD73 ECD. The experiment is described as above.
From the text: as §1

Positions count from the first letter of the chain named. Numbers in names are those of the source.

B1: MEDI9447 (antibody, human IgG1, lambda, V domains shown)
VH: EVQLLESGGGLVQPGGSLRLSCAASGFTFSSYAYSWVRQAPGKGLEWVSAISGSGGRTYYADSVKGRFTISRDNSKNTLYLQMNSLRAEDTAVYYCARLGYGRVDEWGRGTLVTVSS
VL: QSVLTQPPSASGTPGQRVTISCSGSLSNIGRNPVNWYQQLPGTAPKLLIYLDNLRLSGVPDRFSGSKSGTSASLAISGLQSEDEADYYCATWDDSHPGWTFGGGTKLTVLG
notes: Human IgG1-TM (L234F, L235E, P331S), lambda light chain; also called clone 10.3 antibody; 73combo3
Turning to B1, the results for the dissociation constant (Kd) (with Cynomolgus CD73 ECD [1]; in experiment [4]; with Cynomolgus CD73 ECD [6]) were 7 pM, 84 pM and 6.5 pM, respectively. In addition, in experiment [2], the “FabZAP internalization, EC50, MDA-MB-231” value was 3.5 pM. Also, the “FabZAP internalization, maximum toxicity, MDA-MB-231” value in experiment [2] came to 97%. Also, the “FabZAP internalization, EC50, 4T1” value in experiment [3] is 18.5 pM. Besides, in experiment [3], the “FabZAP internalization, maximum toxicity, 4T1” value is 97%. The koff in experiment [5] is 1.94e-05 s⁻¹; with Human CD73 ECD, 1.06e-05 s⁻¹; with Murine CD73 ECD, 2.32e-06 s⁻¹; in the experiment with Cynomolgus CD73 ECD [6], 1.76e-05 s⁻¹. The kon in experiment [5] stood at 4.63e+06 M⁻¹ s⁻¹; in the experiment with Human CD73 ECD, 2.57e+06 M⁻¹ s⁻¹; with Murine CD73 ECD it was 2.41e+06 M⁻¹ s⁻¹; with Cynomolgus CD73 ECD [6], 2.71e+06 M⁻¹ s⁻¹.

Source of the values: patent US20230340152A1 (published 2023).
